Measurements from the DeepSol protein solubility set.

Test: soluble on expression in E. coli; label from the status in PepcDB or PDB records

Sequence	soluble on expression in E. coli
MGSDKIHHHHHHMANLPWITIIGLGEDGPEGLPPASRDALAAAEIIMGPARHLALIGPTNAQQVEWPVPFADGIDVLRGHGGRPVAVLVSGDPFWYGAGRAMSKAFGRDAWRAIPVPSVFSLVSSRMGWPIEDTLCIGLHARPFEQLRAKLAPGRRIIATLRDGPAVSGVAHFLRDTGFGGSTLTVCEAVGGPREVVTQVSVAEALKGGFSHPVTVAVELHGTGEVIPLASGRPDALFQTDGVMTKRPVRALTLSALAPRAGEHLWDIGGGSGSIAVEWALADRTCTATVVETRADRVALIRANVESFGLTDQVTVLEGMAPGAMADAPPANAVFIGGGLSPEMLQFVTALPKGTRVVANAVTLEAEAHLAQAQGSFGGDLMRIEIAHAQPLGPKRGWTSAYPVVQWSVTL	not soluble
MRVLFIGDVMAEPGLRAVGLHLPDIRDRYDLVIANGENAARGKGLDRRSYRLLREAGVDLVSLGNHAWDHKEVYALLESEPVVRPLNYPPGTPGKGFWRLEVGGESLLFVQVMGRIFMDPLDDPFRALDRLLEEEKADYVLVEVHAEATSEKMALAHYLDGRASAVLGTHTHVPTLDATRLPKGTLYQTDVGMTGTYHSIIGGEVETFLARFLTGRPQPFRAAQGKARFHATELVFEGGRPVAISPYVWEEP	soluble
MTKNPRNNKPKKILDSSYKSKTIWQNYIDALFETFPQLEISEVWAKWDGGNVTKDGGDAKLTANIRTGEHFLKAREAHIVDPNSDIYNTILYPKTGADLPCFGMDLMKFSDKKVIIVFDFQHPREKYLFSVDGLPEDDGKYRFFEMGNHFSKNIFVRYCKPDEVDQYLDTFKLYLTKYKEMIDNNKPVGEDTTVYSDFDTYMTELDPVRGYMKNKFGEGRSEAFVNDFLFSYK	soluble
MKSGRFIGVMSGTSLDGVDVVLAAIDETMVAQQASLTWPIPVHLKKGILDICQGQPLTLSQLGQLDTQLGRLFAQAVNALLAQQRLQPRDIVAIGCHGQTVWHEPTGEAPHTLQIGDNNHIVAHTGITVVGDFRRRDIALGGQGAPLVPAFHHALLGHPTEKRMVLNIGGIANLSLLFPGQAVRGYDTGPGNMLMDAWIWRQCAQPYDKDAAWAKEGQVILPLLQKMLRDPYFAASAPKSTGREYFNYGWLERHLAAFPGADARDVQATLAELTAVSIAQQVLLNGGCERLMVCGGGGRNPLVMARLAALLPGIEVSTTDKAGISGDDMEALAFAWLAWRTLAGLPGNLPSVTGATEASVLGAIYPANPITQS	not soluble
MSLERLIPIIAPQVPEKPLLNDSLGSGIGCSATLGRSTKFEDNFMCLKQDNVLFVGVFDGHAGHESALISAECFTKILPSFDFTNAIHQKNPEKDEENIQKFDFPKVENHLSPRRNHFRNVKTQENQIFGSQKIETKNIKNTQKIELKNSEKIELENSKGSENLNTKLIKTYLRMAFAQVNDELRNRKVKDGTTAVVVCLFENRKGAVAHVGDSLALLVGQTTSKLLTKMHRPSDKDEFYRMRKRNKSVSSDWKVDGKLSVSRSLGDFWCCGGMFDDADVSFFDLNDDALSIVLGCDGLWDYVDEGTVCNVVRELRDPVKAAKLLQDIAFASGSHDSISVIVVNVEPTEGHHHHHH	soluble
RPQGLHLELETRLQKMYGIRQVIVVEATEPDDEESIKQAIGSAAAHYLETSLSAQDHIGISSWSSTIRAMVSHMHPQPGKQSAQEVVQLLGGVGNKGAFEATLLTQRLATLLNCPAFLLPSQSIEQSVESKQRIVEMEEVKEVLHRFDSITLAIVGIGELEPSQLLRNSGNYYTEDMLRVLAERGAVGDICLRYFDAQGKPVLEEDEEFVVSMGLGKLRSINRVLGLAGGVRKVQAIKGALLGGYLDVLITDVGTARGLGG	soluble
MKFVSIISNSRMLFLFLLITAKSDRESCLYIFDENIRGVNITPTFVSTRAKGLFDLFIKKLRSRVALSFFLLKRKIKLEETIVYGADHLSHSLLFLKKCSFFLIEDGTENYHQKSYKRSWKNKLFSIPKFGMYKNVKRIYLTKRENVPDCIKSKVEYINIKDLWFKKTEEEKLEILYLLGIDMKKIQLLIGEPFILFTQPLSEDYILTENEKIELYKSIIDKYDASKLVIKPHPREKTDYSRIFPNVKVFDETYPSEVLDILEVKFSRVITLFSTAAFSYPKEKVDFYGTKIHPKLLAKFGNIEYE	not soluble
EVDPAKCVLQGEDLHRAREKQTASFTLLCKDAAGEIMGRGGDNVQVAVVPKDKKDSPVRTMVQDNKDGTYYISYTPKEPGVYTVWVCIKEQHVQGSPFTVTVRRKH	soluble
MGSDKIHHHHHHMAQMTSQTLYQALWNSADILRSKMDASEYKNYLLGLIFYKYLSDRMVVYASDQLEEKTTDLDKAQQIYTDAYNDKDLHDDLISNVSDEFGYHIQPDLTFTALIDKIDHGTFQLEDLSQSFRDIEQSSEFFSGLFEDVDLYSRKLGATPQKQNQVISDVMKQISTLDLVGQNTNDILGDAYEYLIGQFASDSGKNAGEFYTPQSVSRLITQIAMHGKEDVRGFTIYDPTMGSGSLLLNARRYSNERLSINYFGQELNTSTYNLARMNMILHGVPINNQHLHNADTLDQDWPIEEPTNFDAVVMNPPYSAHWQPSKGTENDPRFVSYGLAPKSKADFAFLLHGYYHLKDTGVMCIVLPHGVLFRGGAEGRIRKALLENGAIDTVIGLPANIFFNTSIPTTVTVLKKSRTTRDVLFIDASKEFEKAKNQNHLTDDNIQKILETCINRKDVDKYAHLASFDEIKENDFNLNIPRYVDTTEPEKPVDVVKVVADIKKNDEEIARLSSELAKNFDDLVANNDEAAKQLTALKELFKNE	not soluble
MQDEYYMARALKLAQRGRFTTHPNPNVGCVIVKDGEIVGEGYHQRAGEPHAEVHALRMAGEKAKGATAYVTLEPCSHHGRTPPCCDALIAAGVARVVASMQDPNPQVAGRGLYRLQQAGIDVSHGLMMSEAEQLNKGFLKRMRTGFPYIQLKLGASLDGRTAMASGESQWITSPQARRDVQLLRAQSHAILTSSATVLADDPALTVRWSELDEQTQALYPQQNLRQPIRIVIDSQNRVTPVHRIVQQPGETWFARTQEDSREWPETVRTLLIPEHKGHLDLVVLMMQLGKQQINSIWVEAGPTLAGALLQAGLVDELIVYIAPKLLGSDARGLCTLPGLEKLADAPQFKFKEIRHVGPDVCLHLVGA	soluble
ASDDELFSMLDQRFGGGEDLLMSGDNGMTEEKLRRYLKRTVTELDSVTARLREVEHRAGE	soluble
MGHHHHHHSHMKESAHLAISWLRSNAKKYQLTNAFGSFDLLDNTDIHLHFPAGAVTKDGPSAGVTIVTCLASLFSGRLVRSDVAMTGEITLRGLVLPVGGIKDKVLAAHRAGLKQVIIPRRNEKDLEGIPGNVRQDLSFVTASCLDEVLNAAFDGGFTVKTRPGLLNSKL	not soluble
MRSKRWKTSDITDYGKKRKESESCGSSSPILETQSSGGAELDEVTEDEYSSNSSSNETSDEEENSEVPNVLSITEREKSWQKLTENDLGRIRFILKYTSNTKKCVNEYFQYNHGQNNEIMKSLLLDTDGTMTAKACSECAYDLNQCHCKKPLRFINAPCEVINQVLHVENAEPTRINHVIATLFRNHIGEIFTKARTAEARASEEAQIRIQIQDNSNAFQRSYHNDPQPSSAEEHEEDIVVDG	not soluble
MESNEDVERLLCQKYPGLAAELQPSGACIIRGVLGSEDTWRRLKLYLPHHPALHGFQLYVQESLEYKLYTSANLKLQDDWLLEDFLDHLPKILPAQKAPTVPKELCREGNIYYDILALYKSNEYCLQVDEACSMIRFSEFTDFEQHYLELKIPSLLLLDHSLPDCVSLGEMLTKSAGNLEEALNLFRKLLEDLRPFYDNFMDIDELCHVLQPSPISSKHKTRLFPLKDRVYLKLTIADPFACIASMSLKIIGPTEEVARLRHVLSDGLSNWDSEMNIHKNLLRMFDLCYFPMPDWSDGPKLDEEDNEELRCNICFAYRLDGGEVPLVSCDNAKCVLKCHAVCLEEWFKTLMDGKTFLEVSFGQCPFCKAKLSTSFAALLND	soluble
MGSDKIHHHHHHMREIEHAKYSRLKNAIYKDASVALLTQHGKEKVVTPILASAIGCEVTLVTGFDTDQLGTFTRDIPRAGTQIEAARKKARIGMELAHLPLGLASEGSFGPDPFTGLFSLNVEMVVWIDDTLGIEVVGVASGRTNFSHLLAANWEQAEAFARAIDFPEHGIVVRPRHEDDSRVRKGIADWESLREAFFWACGEADNGCVFLETDVRAHMNPMRMEIIASATRDLADKLATPCPVCNTPGFQIVERVPGLPCEGCGAPTRDTWADIHRCGRCGHQVALERLEKAAPAGHCDWCNP	not soluble
MKLKAMYSFLSDDLAAVEEELERTVRSEYGPLGEAALHLLQAGGKRIRPVFVLLSARFGHYDFERIKHVAVALELIHMASLVHDDVIDDADVRRGRPTIKARWSNRFAMYTGDYLFARSLERMAELDSPRAHQVLAKTIVEVCHGEIEQIKDKYRFDQPLRTYLRRIRRKTALLIAASCQLGALAAGAPEAVANRLYWFGHCVGMSFQITDDILDFTGTEEQLGKPAGSDLQQGNVTLPVLYALCDEQVRAKITAVNADTDAEEMAAVLAAIKQTDAIERSYALSDRYLEKALRLLGELPANEARTLLHDLALYIGKRDY	not soluble
MAYDLAVPGPIMQEVAQYLASLSGKAVVINIFAGHADRSLSQTQLAELLDKLLARHPGSAVILLDHRREIRIPLPPEVVINPFNTLHHAMALIAQAELIISPDTSVVHMAAAWNKPLIAVYKDVLLNNRLWAPGYDNARQIIVKCGKVHQHRGLVDRIIAALPETLLEHHHHHH	not soluble
MKADIARCAYMHAHGGFYFDTDYKLLRPLDAQVLSQHCVLPVEEGAPGQEDFKIGNAVFGSEPGHPFWRAFIEHIFTAHAPETLQDHREIPMISGPRGLTRFYNAHGGQFADILFPPRDAFHPDRTWFGLGHRGGKSAVGSHLCWASWRGKSPRRALTNYLRRKLNAVPILEHHHHHH	not soluble
MSLNKVWLTGLLTATASGVFSASTLAATEITWWHAMGGQLGEMVNQLATDFNASQSDYKLTPVYKGSYTETLTTGIAAFRAGQAPNILQVFDAGAATIMSSKGVAKPVQDLMIESGYPFTAQDYIAGVRNFYADNTGKMVGMPFNSSTPVLYYNKDMLASVNAQAPQTYEQLEQVAAKLAEKGQAGFAQSLAPWIMFENFKSRHNLPLSDKQNGYQDLSTKIMFNSDDMLMHVKKLKEWSDKGYYKYYGSDWDANQTPFERGEVAMWMGSSGSFGGLRNRVKFNLGTTYLPYWESVTKNPTHTFIGGAALFALQGHTPAQDKGVAAFFAYLTKPETQMNWHKTTGYVPVTNAAYDLTKQSGYYQENPDAEVGVKQLSLPDGEWTKGYRLGYYPQVREVMHREFDNIFSGRSTVESSLNKVEDESAKLLNRFARTVQEGGSHHHHHH	soluble
MGCVSSTSRSTGYYSGYESHEEPRAASRPTNSDDRGYETDSEPSSGNLIPNARSVYSESVLWHGTSMQSKIDLRSKGFDAGRKTGGATAGGNANMFMNLSREAQSETRRHHYLSSSQKEAKDFAMFADTSNPTLVRTIGVRNNLSLITDPRTGGTALMTDQSIPRKFVLGSKSSAPGENAKVFRDEMRAAGHNVSTKQAGELLREVQSDS	not soluble
MSDAATRRLMKELAQLKSEAPEGLLVDNTSTSNDLKQWKIGVVGAEGTLYAGEVFMLQFTFGPQYPFNSPEVMFVGETIPAHPHIYSNGHICLSILSDDWTPALSVQSVCLSILSMLSSSKEKKHPIDDAIYVRTCSKNPSKTRWWFHDDSV	not soluble
MKKRRFPRVNAVLSRWGVALSDARETQAEQARLADFEARGGLEAPAYALSPGMRTFDLAPLVEEYAQHGEALAALHDPARNQTGYRSGNGYYDTPDAEALYLMIRRYQPRRVIEVGCGNSTRITRQAALDGGLETEITAIDPWPRADIAGVVDRFEQARLEEVDPAVFAALEADDVLFIDSSHQVRMSNDVAHLFCRIIPALAPGVVIHVHDVFLPYEYPKRFFYDCPSWAEQYVLHALIQSGGYDILWPGYYLQRARPDAVEALPFLGQGRAQSFWIRKL	not soluble
